Measured values taken from PMC3944073.

Biological target: GFP-β-DGNLS fusion protein
Experiment: AlphaScreen or HTRF; ALPHAScreen; His6-tagged GFP-β-DG-NLS at a fixed amount per well with increasing GST-ezrin, GST-IMPα2/β1 or GST alone (0-60 nM); nickel chelate acceptor beads and streptavidin donor beads; room temperature; apparent dissociation constants from sigmoidal fits

Kd: 2.22 nM
Substance: GST-ezrin (mouse) (from UniProt P26040 1-586) (natural protein)
